Where two headings read alike, the source gives them in different places.
T1: VraR (Staphylococcus aureus, UniProt Q2FX09 1-209)
T1 sequence: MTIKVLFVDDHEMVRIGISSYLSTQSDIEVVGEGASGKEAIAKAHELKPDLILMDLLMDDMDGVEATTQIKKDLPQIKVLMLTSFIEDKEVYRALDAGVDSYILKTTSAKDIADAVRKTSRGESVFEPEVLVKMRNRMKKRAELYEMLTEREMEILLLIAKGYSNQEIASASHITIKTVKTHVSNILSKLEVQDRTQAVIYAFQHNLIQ

T2: WalK-LgBIT (native WalK, sensor histidine kinase) (Staphylococcus aureus, UniProt Q2FKN7 1-608)
T2 sequence (looked up): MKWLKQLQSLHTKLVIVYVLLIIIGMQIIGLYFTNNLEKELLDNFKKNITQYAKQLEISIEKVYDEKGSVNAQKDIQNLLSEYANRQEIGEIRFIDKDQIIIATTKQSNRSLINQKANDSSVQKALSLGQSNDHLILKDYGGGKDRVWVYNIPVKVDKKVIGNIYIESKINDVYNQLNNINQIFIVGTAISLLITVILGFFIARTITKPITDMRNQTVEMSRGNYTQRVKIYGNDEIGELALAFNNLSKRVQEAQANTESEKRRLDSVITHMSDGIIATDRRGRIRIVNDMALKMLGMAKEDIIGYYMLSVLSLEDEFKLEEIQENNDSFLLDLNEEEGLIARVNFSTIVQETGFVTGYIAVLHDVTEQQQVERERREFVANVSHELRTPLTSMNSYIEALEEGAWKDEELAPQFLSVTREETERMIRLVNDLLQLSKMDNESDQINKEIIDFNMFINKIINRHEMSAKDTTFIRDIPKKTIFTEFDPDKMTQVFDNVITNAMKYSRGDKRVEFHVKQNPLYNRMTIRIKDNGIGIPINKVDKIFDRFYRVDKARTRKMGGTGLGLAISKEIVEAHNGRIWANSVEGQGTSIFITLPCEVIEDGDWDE

B1: ltaS promoter EMSA probe (WalR site) (dsDNA)
DNA 1: ATATTTATTAATTGAGCTATGCTTATTATTACAATTTGATTACAAATTTTAAATTTGTTAATTGAATGAT
DNA 2: ATCATTCAATTAACAAATTTAAAATTTGTAATCAAATTGTAATAATAAGCATAGCTCAATTAATAAATAT
B2: SAUSA300_0602 promoter EMSA probe (dsDNA)
DNA 1: GAAATATAAAAGTAGTAATTATTATTTGTAATATAATTGTAATATGACTGTTGTTTTAGAAATGATTGTT
DNA 2: AACAATCATTTCTAAAACAACAGTCATATTACAATTATATTACAAATAATAATTACTACTTTTATATTTC
B3: ltaS promoter EMSA probe (VraR site) (dsDNA)
DNA 1: CATTAGGAGGAAATTATTTGCATCGGACTCGAGTATGAGCTACGTACCAAATATTATTTCATCATTTCTA
DNA 2: TAGAAATGATGAAATAATATTTGGTACGTAGCTCATACTCGAGTCCGATGCAAATAATTTCCTCCTAATG
B4: sasD promoter EMSA probe (dsDNA)
DNA 1: CTTTTGTAATCGTATGATAATGTAAATGTAATCAAATTGTAATATAAGGGGACAAGACAATGAAAAAATT
DNA 2: AATTTTTTCATTGTCTTGTCCCCTTATATTACAATTTGATTACATTTACATTATCATACGATTACAAAAG
B5: WalR_(T101A)-SmBIT (natural protein, Staphylococcus aureus, UniProt Q2FKN8 1-233, looked up)
chain: MARKVVVVDDEKPIADILEFNLKKEGYDVYCAYDGNDAVDLIYEEEPDIVLLDIMLPGRDGMEVCREVRKKYEMPIIMLTAKDSEIDKVLGLELGADDYVAKPFSTRELIARVKANLRRHYSQPAQDTGNVTNEITIKDIVIYPDAYSIKKRGEDIELTHREFELFHYLSKHMGQVMTREHLLQTVWGYDYFGDVRTVDVTIRRLREKIEDDPSHPEYIVTRRGVGYFLQQHE
B6: ssaA promoter EMSA probe (dsDNA)
DNA 1: AAAACTGAATGTTTCGAAAATAAGTCTGTTACAAATTTGTAATATTACTGAAAATTCTAAATGTATATTT
DNA 2: AAATATACATTTAGAATTTTCAGTAATATTACAAATTTGTAACAGACTTATTTTCGAAACATTCAGTTTT
B7: isaA promoter EMSA probe (dsDNA)
DNA 1: AAATAACACTTGATATTGTAATGTTTTGTAAAGAAAGTGTAATTTACTGGCTGGTTTTTTGTGATATAGT
DNA 2: ACTATATCACAAAAAACCAGCCAGTAAATTACACTTTCTTTACAAAACATTACAATATCAAGTGTTATTT
B8: sle1 promoter EMSA probe (dsDNA)
DNA 1: TTTGATGATACAGTATATGATTTTTTTGTAATCATAATGTCATCAAACATCAACCTATTATACATAATAA
DNA 2: TTATTATGTATAATAGGTTGATGTTTGATGACATTATGATTACAAAAAAATCATATACTGTATCATCAAA

Key:
[1] = biological target: T3, WalR (Staphylococcus aureus, UniProt Q2FKN8 1-233); experiment: EMSA
T3 sequence (Q2FKN8 whole entry): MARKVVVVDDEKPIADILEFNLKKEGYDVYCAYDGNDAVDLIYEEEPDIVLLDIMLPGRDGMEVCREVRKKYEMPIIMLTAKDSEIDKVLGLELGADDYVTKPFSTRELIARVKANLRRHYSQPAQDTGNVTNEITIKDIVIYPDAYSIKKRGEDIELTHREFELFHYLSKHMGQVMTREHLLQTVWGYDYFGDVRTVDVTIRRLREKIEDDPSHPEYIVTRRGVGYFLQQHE

[2] = biological target: T1, VraR; experiment: EMSA
[3] = biological target: T1, VraR; experiment: EMSA; remark: listed apart in the source
[4] = biological target: T3, WalR; experiment: EMSA; remark: listed apart in the source
[5] = biological target: T2, WalK-LgBIT (native WalK, sensor …); experiment: split reporter
[6] = biological target: T3, WalR; experiment: EMSA; remark: listed apart in the source

Row | Binder | binding result [1] | further results
1 | B1 | binds | binding result [2]: binds
2 | B2 | binds | –
3 | B3 | – | binding result [3]: binds; binding result [4]: no binding
4 | B4 | binds | –
5 | B5 | – | fold change of the maximal level of interaction against native WalK/WalR [5]: 1.5 fold
6 | B6 | – | binding result [6]: binds
7 | B7 | binds | –
8 | B8 | binds | –

Reference: article doi:10.1101/2023.02.27.530350 (bioRxiv, 2023)
